Our source for the Kd, koff and kon values is patent publication US20170112900A1 (Pieris, published 2017).

The experiment has as its target T1, human IL-4 receptor alpha chain (Interleukin-4 receptor subunit alpha, Uniprot #P24394, SEQ ID NO: 12) (human, UniProt P24394 26-232, limits assumed).
T1 construct: also called IL-4RA; human IL-4RA
T1 sequence: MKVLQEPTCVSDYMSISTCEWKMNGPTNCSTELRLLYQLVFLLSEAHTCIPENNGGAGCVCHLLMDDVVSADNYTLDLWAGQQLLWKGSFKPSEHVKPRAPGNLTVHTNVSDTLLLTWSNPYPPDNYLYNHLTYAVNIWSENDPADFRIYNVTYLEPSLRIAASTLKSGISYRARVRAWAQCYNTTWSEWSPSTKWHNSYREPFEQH
In words: method not stated; target IL-4RA implied by the text.

B1: IL-4 double mutant IL-4 (R121D, Y124D) (ligand, UniProt P05112 25-153, looked up)
chain: HKCDITLQEIIKTLNSLTEQKTLCTELTVTDIFAASKNTTEKETFCRAATVLRQFYSHHEKDTRCLGATAQQFHRHKQLIRFLKRLDRNLWGLAGLNSCPVKEANQSTLENFLERLKTIMDEKDSKCSS
notes: they probably count on mature IL-4, not on the precursor entry; also called IL-4 mutant (R121D, Y124D); IL-4 mutant
B1 showed a dissociation constant Kd of 0.154 nM, an off-rate constant (koff) of 0.0029 s⁻¹ and a kon of 1.9e+07 M⁻¹ s⁻¹.
